In paper PMC4287497, “Phosphorylation of Elp1 by Hrr25 Is Required for Elongator-Dependent tRNA Modification in Yeast” (PLoS Genetics, 2015):
Blank lines part the entries; values can stand above or below the molecule they belong to.

Legend:
Kti12 [1] = target: Kti12 (UniProt P34253); experiment: Elp2-myc IP of Elongator, anti-HA blot for Kti12; conditions: reference: wild type Elp1; sites S1209
Kti12 [2] = target: Kti12 (UniProt P34253); experiment: GFP-trap IP of Elp1-GFP, anti-HA blot, densitometry; conditions: reference: wild type Elp1-GFP; sites S1209
Elp1-S1209A-GFP = target: T1, Elp1-S1209A-GFP (S. cerevisiae, UniProt Q06706 1-1349, S1209A); experiment: co-IP; GFP-tagged Elp1 (genomic locus) precipitated with GFP-trap from yeast extracts; Western blot with anti-GFP and anti-HA; densitometry of Kti12-HA normalised to Elp1-GFP, wild type set to 1.0; conditions: partners not purified
T1 construct: Elp1 (Iki3), S. cerevisiae; also called mutant Elp1-GFP fusion; source: S. cerevisiae, expressed from its genomic locus, in cell extract
T1 sequence (looked up): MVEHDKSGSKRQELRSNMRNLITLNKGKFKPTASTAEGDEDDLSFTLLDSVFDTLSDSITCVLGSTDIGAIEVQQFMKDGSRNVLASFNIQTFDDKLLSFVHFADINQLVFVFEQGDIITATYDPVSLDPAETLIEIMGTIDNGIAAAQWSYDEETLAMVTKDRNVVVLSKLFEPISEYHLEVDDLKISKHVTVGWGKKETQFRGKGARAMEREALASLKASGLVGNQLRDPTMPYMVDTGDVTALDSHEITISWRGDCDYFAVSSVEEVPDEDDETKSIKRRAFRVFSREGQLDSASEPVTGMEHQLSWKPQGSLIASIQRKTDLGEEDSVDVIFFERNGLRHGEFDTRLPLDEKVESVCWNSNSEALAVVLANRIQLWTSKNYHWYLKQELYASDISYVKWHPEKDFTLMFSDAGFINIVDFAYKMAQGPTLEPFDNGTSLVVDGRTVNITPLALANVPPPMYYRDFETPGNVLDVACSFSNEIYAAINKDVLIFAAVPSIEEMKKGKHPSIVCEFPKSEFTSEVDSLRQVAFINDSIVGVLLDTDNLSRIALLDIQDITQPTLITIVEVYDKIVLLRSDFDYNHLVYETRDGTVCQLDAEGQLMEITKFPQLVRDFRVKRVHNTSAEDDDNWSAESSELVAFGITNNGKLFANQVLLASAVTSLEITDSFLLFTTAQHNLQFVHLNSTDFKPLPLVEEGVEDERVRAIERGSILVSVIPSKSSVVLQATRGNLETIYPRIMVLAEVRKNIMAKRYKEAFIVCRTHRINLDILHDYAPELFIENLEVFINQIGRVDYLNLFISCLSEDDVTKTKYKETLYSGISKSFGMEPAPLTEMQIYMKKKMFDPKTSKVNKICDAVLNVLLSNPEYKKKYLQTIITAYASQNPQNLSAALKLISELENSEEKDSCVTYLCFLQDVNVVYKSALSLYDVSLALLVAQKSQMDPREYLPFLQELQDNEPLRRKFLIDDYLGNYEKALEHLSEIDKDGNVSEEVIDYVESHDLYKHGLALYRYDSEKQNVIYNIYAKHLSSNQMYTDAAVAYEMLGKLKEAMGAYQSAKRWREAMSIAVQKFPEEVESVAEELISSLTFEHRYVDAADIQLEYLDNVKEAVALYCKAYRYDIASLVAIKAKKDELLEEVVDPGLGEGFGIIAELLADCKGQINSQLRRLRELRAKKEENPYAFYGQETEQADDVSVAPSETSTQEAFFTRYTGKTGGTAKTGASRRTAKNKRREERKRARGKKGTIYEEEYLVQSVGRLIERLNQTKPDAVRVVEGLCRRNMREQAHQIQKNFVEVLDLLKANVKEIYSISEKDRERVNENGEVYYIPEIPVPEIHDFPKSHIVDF

binding against the reference (Kti12 [1]): stronger
Molecule: Elp1 (Iki3) (from UniProt Q06706) S1209A

fold change (Kti12 [2]): stronger; reference 1.0
Molecule: Elp1 (Iki3) (from UniProt Q06706) S1209A Elp1-GFP

Kti12 co-precipitated, fold of wild-type Elp1 (Elp1-S1209A-GFP): ~2 fold of wild-type Elp1
B1: Kti12-HA6 (natural protein, S. cerevisiae, UniProt P34253 1-313, looked up)
chain: MPLVLFTGYPCSGKTTLAKHLVQLLQSKIDATPSLSKYSITYHSDESLGIKHSDYITSQDERKLRSEIISAVKRDLSKNKIVIVDSLNYIKGFRYQLHCEVKNLSTTFCVIQTLCPPETIFEWNKTSNPNPWEPELLNQLIQRYEEPNSSNRWDSPLFAILTPQDNITDYIDDICKVVFQTSKSAKNSGHNDPLSKGLQKPNSATVLKPASQSNFIQVLDIETSKIIKTIMNHIKSLTSIGGVSNGTRVIVSEGITDINDDGCFFVDLPIGNVVTLAQLQRLKRQFINFNKLRDIDQDRIGPLFADYLNKNLN
notes: Kti12, accessory protein of Elongator, S. cerevisiae; also called HA-tagged Kti12; source: S. cerevisiae KTI12-HA6 strains, in cell extract
